Experimental data taken from patent US11655308B2, “HM-3 fusion protein and application thereof” (TASLY BIOPHARMACEUTICALS CO., LTD., priority 2017, dated 2023).
Marks after values point to notes of the source that are not given here.

Experiments:
Format in all cases: cell-based
[1] = tested on: mice splenic lymphocyte proliferation stimulated by ConA
Protocol: Experimental method: mice orbit was by bloodletting to death, and immediately immersed in 75% ethanol for 5-10 min, and then the spleen was removed on a clean bench and placed in PBS. The spleen was placed on a sterile cell strainer (200 mesh) and ground with a syringe nozzle; during grinding process, PBS was added continuously; the slurry was collected and centrifuged (1000 rpm for 5 min), then cells were washed 3 times with Tris-ammonium chloride solution, and washed again with a medium, and then re-suspended in the medium. Finally, trypan blue living cell staining was performed on the cells, and the survival rate was more than 95%. The concentration of viable cells was adjusted to 2×10^6/mL. […] was added to each well of a 96-well plate, meanwhile, ConA (concanavalin to simulate splenocyte proliferation) and drugs were added to each well. Six duplicates were set in each group.
The 96-well plate was incubated for 48 h in a 5% CO2 incubator at 37° C. 5 mg/mL of MTT was added to the 96-well plate, 20 μL for each well, and then it was incubated continuously for 4 h in the incubator. The culture medium in the 96-well plate was discarded and 100 μL DMSO was added to each well and mixed gently. Absorbance was measured by a microplate reader at the wavelength of 570 nm and reference wavelength of 630 nm.
Proliferation inhibition rate (PI) was calculated according to formula:
[formula] wherein, Atest is the absorbance of dosing group, and Acontrol is the absorbance of negative control. Test results were expressed as mean±SD, and statistical T test was performed. *P<0.05 indicates significant difference, **P<0.01 indicates extremely significant difference. Based upon the results, the efficacy of the fusion protein against rheumatoid arthritis was screened.
In the P4 control group, TSL-4 fusion protein served as a control agent.

human macrophage U937 = experiment: TNF-α production by LPS-induced human macrophage U937 (ELISA)
Protocol: Experimental method: Human macrophage U937 was cultured in RPMI-1640 medium containing 10% fetal bovine serum and double antibodies in a constant temperature incubator at 37° C. under the condition of 5% CO2, and the medium was replaced every 2 days. U937 cells in the logarithmic phase were collected, resuspended and adjusted to the concentration of 5×10^5/mL. 100 μL of cells was added to each well of a 96-well plate overnight and induced with LPS (1 μg/mL) in the following day, where n=3. At the same time, the cells were treated with agents, and respectively divided into a positive control group adalimumab, an HM-3 polypeptide group, an mPEG-SC-HM-3 polypeptide group, an HM-3 fusion protein (TSL-1, TSL-2, TSL-3, TSL-4) group, and the specific dosing scheme was shown in Table 5.
48 h after the agents worked, culture medium was collected and centrifuged, and supernatant was taken to measure the content of TNF-α therein by ELISA. Test results were expressed as mean±SD, and statistical T test was performed. *P<0.05 indicates significant difference, **P<0.01 indicates extremely significant difference. Based upon the results, the efficacy of the HM-3 fusion protein against rheumatoid arthritis was screened.

Rat chondrocyte = experiment: Protective effect of TSL-4 on chondrocytes injured by hydrogen peroxide (MTT)
Protocol: The culture medium was replaced to different experimental groups in the following day with a dose volume of 100 μl and incubated for 24 or 48 hours respectively.
At the end of incubation according to the experimental plan, 10 μL of 5 mg/ml MTT was added to each experimental group based upon 1/10 of the cell culture volume, so that the cells were incubated with MTT in the incubator for 4 hours. Afterwards, supernatant was carefully discarded, and 200 μL of dimethyl sulfoxide (DMSO) was added for mixing well, then the absorbance was measured on a microplate reader at a test wavelength of 570 nm. Calculating formula of relative cell activity ratio (%): a mean value of the absorbance (per well) in the experimental group/the absorbance in the control group multiplies by 100%. […] The difference between each group was analyzed by Prism 7.0, and tested by one-way ANOVA. *P<0.05 means statistical difference, **P<0.01 means significant statistical difference, and […] means extremely significant statistical difference.
In order to detect the protective effect of TSL-4 on chondrocytes injured by hydrogen peroxide, the experiment was divided into three groups control group (no hydrogen peroxide and TSL-4, only adding fresh culture medium), hydrogen peroxide modeling group (only adding hydrogen peroxide cell culture medium containing different concentrations) and TSL-4 administration group (containing hydrogen peroxide). In order to detect the protective effect of TSL-4 on chondrocytes injured by hydrogen peroxide, TSL-4 and hydrogen peroxide were cultured with chondrocytes for 24 hours. The dosage of hydrogen peroxide was selected within 0.1, 0.25, 0.5 and 1 mM; the TSL-4 dosage was 0.23, 1.17, 5.86, 29.3
In the presence of different doses of H2O2, TSL-4 at proper concentration and chondrocytes were cultured for 24 h, and the relative cell viability in each administration group (relative absorbance percentage to the control group) was expressed as the following X±SD.
In the presence of the molding agent H2O2 at 0.25, 0.35, 0.5 mM, 1.17 and 5.86 μM TSL-4 were cultured with chondrocytes for 24 h, and the relative cell viability in each administration group (relative absorbance percentage to the control group) was expressed as the followings X±SD.

Substance: mIgG4-Fc-(GGGGS)3-HM-3 [TSL-4]
- optimal (best) inhibition rate of splenic lymphocyte proliferation ([1]; ConA 5 μg/mL, 48 h, MTT, best of the tested concentrations): 63.3%
- inhibition rate compared with the positive control group ([1]; positive group Dexamethasone 50 μmol/L): higher than that of the positive control group
- inhibition ratio of mice splenic lymphocyte proliferation relative to group ConA ([1]; second round (Table 3)): enhanced significantly
- inhibitory effect on TNF-α compared with HM-3 and mPEG-SC-HM-3 (human macrophage U937): much better than that of polypeptide HM-3 and mPEG-SC-HM-3
- TNF-α content in cell supernatant (human macrophage U937; 9 μM, LPS 1 μg/mL, 48 h, negative group 77.6±19.6): 22.2 ± 8.9 pg/mL
- relative cell viability (relative absorbance percentage to the control group) (Rat chondrocyte; 0.23 μM TSL-4, 0.1 mM H2O2, 24 h, 0 μM 106.87 ± 9.52): 84.23 ± 20.42***
- relative cell viability (relative absorbance percentage to the control group) (Rat chondrocyte; 0.23 μM TSL-4, 0.25 mM H2O2, 24 h, 0 μM 70.96 ± 11.61): 71.42 ± 6.74
- relative cell viability (relative absorbance percentage to the control group) (Rat chondrocyte; 0.23 μM TSL-4, 0.5 mM H2O2, 24 h, 0 μM 1.68 ± 0.82): 3.17 ± 1.45
- relative cell viability (relative absorbance percentage to the control group) (Rat chondrocyte; 0.23 μM TSL-4, 1 mM H2O2, 24 h, 0 μM 3.57 ± 0.60): 0.89 ± 0.32
- relative cell viability (relative absorbance percentage to the control group) (Rat chondrocyte; 1.17 μM TSL-4, 0.1 mM H2O2, 24 h, 0 μM 106.87 ± 9.52): 100.01 ± 5.02
- relative cell viability (relative absorbance percentage to the control group) (Rat chondrocyte; 1.17 μM TSL-4, 0.25 mM H2O2, 24 h, 0 μM 70.96 ± 11.61): 85.11 ± 8.08*
- relative cell viability (relative absorbance percentage to the control group) (Rat chondrocyte; 1.17 μM TSL-4, 0.5 mM H2O2, 24 h, 0 μM 1.68 ± 0.82): 16.56 ± 5.91*
- relative cell viability (relative absorbance percentage to the control group) (Rat chondrocyte; 1.17 μM TSL-4, 1 mM H2O2, 24 h, 0 μM 3.57 ± 0.60): 1.14 ± 1.07
- relative cell viability (relative absorbance percentage to the control group) (Rat chondrocyte; 5.86 μM TSL-4, 0.1 mM H2O2, 24 h, 0 μM 106.87 ± 9.52): 102.36 ± 9.75
- relative cell viability (relative absorbance percentage to the control group) (Rat chondrocyte; 5.86 μM TSL-4, 0.25 mM H2O2, 24 h, 0 μM 70.96 ± 11.61): 86.35 ± 4.20*
- relative cell viability (relative absorbance percentage to the control group) (Rat chondrocyte; 5.86 μM TSL-4, 0.5 mM H2O2, 24 h, 0 μM 1.68 ± 0.82): 10.27 ± 7.08
- relative cell viability (relative absorbance percentage to the control group) (Rat chondrocyte; 5.86 μM TSL-4, 1 mM H2O2, 24 h, 0 μM 3.57 ± 0.60): 1.21 ± 0.70
- relative cell viability (relative absorbance percentage to the control group) (Rat chondrocyte; 29.3 μM TSL-4, 0.1 mM H2O2, 24 h, 0 μM 106.87 ± 9.52): 76.46 ± 5.45****
- relative cell viability (relative absorbance percentage to the control group) (Rat chondrocyte; 29.3 μM TSL-4, 0.25 mM H2O2, 24 h, 0 μM 70.96 ± 11.61): 59.72 ± 3.49
- relative cell viability (relative absorbance percentage to the control group) (Rat chondrocyte; 29.3 μM TSL-4, 0.5 mM H2O2, 24 h, 0 μM 1.68 ± 0.82): 3.87 ± 6.00
- relative cell viability (relative absorbance percentage to the control group) (Rat chondrocyte; 29.3 μM TSL-4, 1 mM H2O2, 24 h, 0 μM 3.57 ± 0.60): 0.43 ± 0.53
- viability of chondrocytes stimulated by H2O2 (Rat chondrocyte; 0.23/29.3 μM TSL-4, 0.1 mM H2O2): relatively significantly inhibiting effect
- relative cell viability (relative absorbance percentage to the control group) (Rat chondrocyte; repeated trial: 1.17 μM TSL-4, 0.25 mM H2O2, 24 h, 0 μM 78.77 ± 7.45): 85.31 ± 7.36
- relative cell viability (relative absorbance percentage to the control group) (Rat chondrocyte; repeated trial: 1.17 μM TSL-4, 0.35 mM H2O2, 24 h, 0 μM 63.96 ± 6.46): 68.54 ± 3.62
- relative cell viability (relative absorbance percentage to the control group) (Rat chondrocyte; repeated trial: 1.17 μM TSL-4, 0.5 mM H2O2, 24 h, 0 μM 37.10 ± 6.53): 41.46 ± 2.08
- relative cell viability (relative absorbance percentage to the control group) (Rat chondrocyte; repeated trial: 5.86 μM TSL-4, 0.25 mM H2O2, 24 h, 0 μM 78.77 ± 7.45): 87.36 ± 7.85
- viability of chondrocytes injured by H2O2 (Rat chondrocyte; repeated trial: 5.86 μM TSL-4, 0.35 mM H2O2): significantly improve the viability of chondrocytes
- relative cell viability (relative absorbance percentage to the control group) (Rat chondrocyte; repeated trial: 5.86 μM TSL-4, 0.35 mM H2O2, 24 h, 0 μM 63.96 ± 6.46): 73.29 ± 4.39
- relative cell viability (relative absorbance percentage to the control group) (Rat chondrocyte; repeated trial: 5.86 μM TSL-4, 0.5 mM H2O2, 24 h, 0 μM 37.10 ± 6.53): 45.07 ± 6.36
